# Source: the supplement of paper PMC12636428
# Test system: Saccharomyces cerevisiae
# Assay: transcriptional activation domain activity (GFP:mCherry ratio, weighted mean of sorted bins, harmonized to initial dataset scale) (arbitrary fluorescence ratio units); higher = stronger transcriptional activation
# Conditions: beta-estradiol 1 µM; induction time 4 h
# Summary of the method: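 Activation activity, the read-weighted mean of bin median fluorescence averaged across barcodes, was linearly mapped onto the scale of the initial dataset. It was measured for barcoded protein tiles fused to an estradiol-inducible synthetic transcription factor at URA3 in GFP-reporter yeast diploids. Cultures diluted 1:5 into SC with 1 uM beta-estradiol were held 4 hours at 30 °C, sorted into 8 bins by GFP:mCherry ratio, and barcode-sequenced, and tiles under 50 reads were discarded.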
row,Sequence,transcriptional activation domain activity
1,RWCARCMLLTATLHMGYFFSAWAPYDYIGYQLKNNKIVWKGLAAWCTLVWIVF,93300
2,NQGSGSKTGGEVDLVGEREEVMRSVHDSRAQLSEDYEYERRNISLAVPLGRGQ,41000
3,MVVSLLIIRCHSTASSNRWLLLGYGLHFLIRFFYLITMLLITRLNFVLSFFAA,81000
4,TAALIELILAIAFRVTMYHLALYGSNVLFRYMRLSNELSNRYANCLVATLNAR,23200
5,KYEEQEDKDEEEEEKEEEEEEEEEEEEEEEGKRGEGKKATAKRRSKGSAYGGK,17300
6,MLCFLYHLVSMCTLLHCLYLLPVLFLIFYASFFLLLACTWSSVRCLISLFFCL,57300
7,SMLEQQESTSAARAEGQRGGAVQEGDIELVDAACVQLASRISPKSLLQRPMVD,31900
8,LPLIQRFLIIAPAVIFYSYVYIVPTARRLQLRVCIRNWLGRWYVHLPVLSRSH,57400
9,VCEEAVGCVRRAALEGFVDEDVRAANVLVRRAGERKERAGRAGRSRVVLVDLA,32600
10,DLLAHCKRELVHAIWTLLLDDVFLHAYKYGMVVRCADGVEQRIYPRIFTYSAD,41200
11,KIHIVNMAQVIVLCIHRFLYGIIPLFEISTCIYFPLLVSLWHITYILFYIVMF,55200
12,YYGMYPQDISTLGVSPRTPTSRLIRSYMKTILSNPESRKIFYFLMLNMCYMLV,58900
13,ISICLPELRLFMYCKFLYWLEVMSLLNDLEHVKQMLKDVLGCGKMQLKVFKFT,62000
14,LWLYLAKQLFYEDLGWFFLLLAFYFTWPLIFLLFLIFWMLFVLVYVLFYLVSF,52300
15,MIMILLVAVLYFLLFRFDLLGLFYCQLFLLSSHLRFVLSTLYLNGSHHLLFFF,34000
16,DKEKMEDGLIRVRLYFFTKLAGKPFYPTLLWSCLHSLTLKRLVALLRKSQLSA,68900
17,HGSTLTTIMIQVSEVMILPSFFQELLDTIRTRCPRVVNFMIWFQVWNWMMVPV,73300
18,SFILLFFYSFILLFFYSFILLFFWFFFCLWILIFSLFYSTIIITIKKRKAHTY,59300
19,ITLYPPNPYTNEPVPIRPISYLHLSGLLNMYVIRRLRRENWIRIFFRILFPFF,26700
20,HTKSTESLVQLDDADGSRLDKVSGSLIQSLLASLGAQHKLVADAALTFLTAGR,43900
21,MYFIILAFVWCFCSCFCFRCVAFWWPLSLSLCLSVGIYLLAFFFFFTTLVLVY,26200
22,ALYLWTRHVGFANFVKLYFVPFMCVNHWIVMLTYLHHCDPTIPYFRRTQWSFL,30800
23,HHFVWERCLPDQMFVFAEDDIAHILNVTISSLELPMKTRQEIWVPSNVLFLCA,54200
24,KSKAANAKGKKKGKKGKKNKKGKKGKKAKNAKKAKAVKVAKAPVAKAPAPAAK,17700
25,MHEYARVALFGTVGVPLRVFISPAFLRALRSFAPHVIHLVDPILLRMQAHIAL,48700

row,Sequence,transcriptional activation domain activity
1,MTESHRPNQSLGLDDAAGGRKPAKRKAHRKSRTGCRQCRASRVKCDENKPSCS,41000
2,SSSRRRSQSPAAEASRSRRERSRDRSDAEDEGGSRSGSRRRRRRGSAEPREED,41600
3,EEAEKVPEKKPKAEEKAAEDGESSNPVHKCWNCGRTKSAVWRTKVMEDGKAVR,33200
4,FYAALYPFKGIFFFIGHPFLYPLARARLIPAFLLSAFVLLNLFFWTYLPQVAF,34300
5,TNLLDRFQTYMERSRFHLLDLLFDFSSHFSAPLMKLAMQHARRWRRFSIFAFW,45100
6,ALKALSFARLLVIAVLMDSFLFVFTSAILVIGIGTSFNQIACQVGIWWCIFLY,58400
7,METTVSGQSSQPPAANDDQEPTKKRKRDKYVGKACGPCKRRKIRCGGGVPCES,36300
8,LAEEEGEEEEGESVTPTDDKIIVKLRGKDNTDTSLRVKQTTLIRSVISSYKKI,64100
9,GANAGGARPSSRTSNKKPTSSASPPNDSNDSNKKKDADAKKHDGKKAERGGGR,29100
10,EPESKPAPARGAQPAQRGNFRGGRGGHRGARGGRGRGGYQERPRRQEEEKPTK,9620
11,MILMLLLLLLLLLLLLVMVLLLLLVMVLLVVLLVLLWVLLLMLLWVLLGVLLG,16200
12,ASASPARAPAAEVPPPVEIHVGDRCEVDRATGVARGTVRFVGEAEMPPPRPGA,42400
13,SVSRLHAKIEYEEEEERFVLVVVGRNGAWVDGVWSGAGSRVPLCERSQIQIAS,45800
14,TKAATGGTASSSKPQLAVQKKQQPAEGKKQPVTQKLPPAAAQKLQQKAPATAA,29300
15,WPFDESIERNFSTTATAATGESKFDINDNCNRINSKSYSKTNSMNGNGMNNSN,28400
16,MLSVRVVVLFAGHLCFLSSSYVLIRCFGDGFNSFVSFRFSSVWWWYLHTLCTH,87900
17,LEMLSYGAGVHHAINILFTDGIFWVWYYDRQGILQSKGVSIFKDLPRFLLLLF,52200
18,SYITYYQSRQFVMIPWYFYFIIITCVLTIIFVMAVCFLFYIHLLLPILVMLWS,35400
19,MPNEESKPVDQAAQEAEASKAVEELKLDEGSASKGKSSKKDKIKNAISSISSS,26800
20,MNILNLEMWYYLLECLNLRFVLVFFLLSLFFSSRFTGGLVGVECFSFFVWITM,86000
21,LLFTFCLYPSFLPFLLLSPLFFFLSLSPFSFFSLFSLSLPLLSPSLFSTPFIH,39600
22,MDLVLCIGLFGHIPYHLQYSLPFVSFFFSHNIVHYSEMHYFGVVNSGILWLGF,63300
23,VVDYHTTYRRMIIVCLQSVLGLFRDMVEQFLGVIYTIYVLIRVFVVFPVWVIY,61200
24,MSGVGKLYRMGCWHGSHLPFIYFGHFILPFLLCLRPILSSVFFIYFFHLLCFF,47000
25,DTSSFFLRFFHFPFLQLFLLQCLISPCLYVRTCPISLLLLWWCFYSVFFCVRG,50300

row,Sequence,transcriptional activation domain activity
1,MGKGGYGEQRGGGRGGFRGGRGGGRGGFGGGGFNQGPPSEVVVVGAFVSACEG,56800
2,SKTAGPSSNSPSQTGKDDKAAASSSTSAGGAPAATGRVIAGLAAGVAMGLAAA,37700
3,EESLKHHEGINMVWRKFQSIFRIIGGIIYYEPIYRAFVRHVLHHLHLDNVLWV,64600
4,WDDILTPADNQHRPSLTNQFLSPRSNYDGTTRSSGIDSNYSDTESNYHTPYLY,61600
5,IGFVDFPFSSCSFLLGYFCYSVFLCFPFLFLVFFGVIYMWSSRGFLVQSFTMI,70800
6,KGFSLTELVFWLWSLGFILDELVGFSDAGFTLYVMSLWNWFDLIILLLLCSYA,49900
7,PLVLPVTAFYFYMDSFLKKYLLLYVFITKYESGGMFWRVVFNRFLFLTLLGNI,60500
8,QEQEQEGMELGIKEGPADPRCKTCGRTEGTRKCTGCGRVRYCGRECQKKDWKV,29700
9,RKPETAGEGSGAEGASGGENHRRGSTRGRGRGRGRGGRSSRGGRSRKDGAGAE,33500
10,ACLFTMELILHNIYAVAIRSAGSPVWSSFTPFELSMFGFWNLIIVWMKLLLPW,54700
11,MCLFVLCLGLLVFFPTRYLLRSAWIKFIKYFNLFLRIIDLGCLFCIPCLIIKY,42500
12,SATEFVTVGGTGNVYHWDMEYSFSRNDDDNEDEVRVAAPEELQGQCLKFFHTG,51000
13,VWFKIVWAWLYVFTSTWLLGVFLSYVKWWLLWVPWFLRSRVRCCVFLAILYIV,73800
14,VTSAKPVQNAGKSRPTSPKPKNVEEREEEKPEVKPVAASPVKATPAPTAAAPV,29000
15,MPPNHPIRLFPLLVQILLLLSASSLLLDTYDYINLGINSSFSYYYFLHLLTFL,44200
16,NTVWLILNDITIGIAFGTFLCENHLILAAYVNYTIEKLLIKEIQWILGWLDSW,84200
17,REGEGRGERGREGAGRERGGGKGVGGGEGGGERTIRLKGRKGDSNETTRRKEE,31700
18,MNGLWCRDDILFYISFVLILFSSFSIFLLLLDRLRFLFSFLFFFFFWCFVFIV,45800
19,MHSSGWLWANISLLFPRLFFLTFFSYLLCDLAFRFDRLVCFLWLLFFQWSFII,52200
20,LSVVHISAPGYQAFFLLQSFRYILLWVLSFLSHFFLPFFLLCQGCFLVQHLPT,54000
21,GGLWNLVMWHWMLSFLAGICCFFLQILTYIWLQESSVIRISTSCLAGFWILPL,91700
22,FCVAAMIGEYGTTYYPTVTYWGELEVLGKIFWTLPLESFANSISGIIVDCYLI,63500
23,MLTILAQNQWFYIIVYIILSYLVIFIIGLFPSVLFFRLRHLHYSFSFYLEYLA,32700
24,FCFFLFLLSFSSCYFFFLLLFLPLTFSSLLFLPIYFFSSSSSSFFLPFLFVSL,43000
